Reference: publication PMC7347389

Target: Cys109 (UniProt position 128, ADAGFCYPPET)
Assay: NMR
Conditions: 25 °C (general NMR condition 'unless stated otherwise'; not stated specifically for the pH series); reduced nDsbD (C103 and C109 as thiols), isolated domain, folded, cap loop closed

Thiol:disulfide interchange protein DsbD, N-terminal domain (nDsbD) (Escherichia coli)
pKa: above 11
